Publication PMC4803055

Molecular target: T1, Mte1 (YGR042W) (Saccharomyces cerevisiae, UniProt P53227 1-271)
T1 sequence: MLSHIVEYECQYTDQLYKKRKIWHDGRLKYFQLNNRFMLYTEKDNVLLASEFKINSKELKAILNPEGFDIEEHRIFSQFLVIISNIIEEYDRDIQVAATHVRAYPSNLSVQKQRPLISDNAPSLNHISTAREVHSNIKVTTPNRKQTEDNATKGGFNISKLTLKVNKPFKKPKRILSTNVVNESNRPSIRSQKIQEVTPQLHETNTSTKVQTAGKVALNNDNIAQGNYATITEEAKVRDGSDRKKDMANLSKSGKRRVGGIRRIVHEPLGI
Assay: EMSA

B1: ssDNA (oligo 1) (ssDNA)
DNA: AGCTATGACCATGATTACGAATTGCTTAATTCGTGCAGGCATGGTAGCT
Kd: 16 ± 3 nM
